The target of this assay is growth hormone receptor on ZFL cells (zebrafish liver cell line) (zebrafish). Description: cell-based or functional assay.

The results in this text go back to patent US6429305 (ACADEMIA SINICA, dated 2002).

B1: recombinant ayu (Plecoglossus altivelis) growth hormone (ligand)
chain: MSENQRLFSIAVNRAQHLHLLAQKMFNDFEGNLSPDDRRQMNKIFLQDFCNSDSIISPVDKHETQKSSVQKLLHISFRLVESWEYPSQALSSSLSLSRFSEIPLKLTDLKLGIDTILRGTQDGLLSLEDNEAQQLPPYENYYQNLGGDDNIHRSYELLACFKKDMHKVETYLTVAKCRRSLEANCTLLEHHHHHH
In the case of B1, the “increase in cell proliferation relative to no growth hormone added (MTS-formazan conversion assay, ZFL cells)” value was found to be 118%.

B2: recombinant yellow grouper (Epinephelus awoara) growth hormone (ligand)
chain: MITDGQRLFSIAVSRVQHLHLLAQRLFSDFESSLQTEEQRQLNKIFLQDFCNSDYIISPIDKHETQRSSVLKLLSISYRLVESWEFPSRSLSGGSAPRNQIFPKLSELKTGILLLIRANQDGAELFPDSSALQLAPYGNYYQSLGADESLRRTYELLACFKKDMHKVETYLTVAKCRLSPEANCTLLEHHHHHH
With B2, the “increase in cell proliferation relative to no growth hormone added (MTS-formazan conversion assay, ZFL cells)” value amounted to 58.3%.
